Test results published in patent US20260167699A1 (Chugai, published 2026).

T1: FcγRIIb extracellular domain, C-terminal His tag (human, UniProt P31994 43-217)
T1 construct: extracellular domain; also called 2b
T1 sequence: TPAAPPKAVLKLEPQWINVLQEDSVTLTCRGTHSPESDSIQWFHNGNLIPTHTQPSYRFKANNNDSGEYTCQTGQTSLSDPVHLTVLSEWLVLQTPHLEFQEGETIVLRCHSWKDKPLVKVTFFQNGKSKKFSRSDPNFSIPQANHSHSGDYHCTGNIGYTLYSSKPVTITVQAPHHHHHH

T2: FcγRIIa(R) extracellular domain, C-terminal His tag (human, UniProt P12318 34-217)
T2 construct: extracellular domain; also called 2aR
T2 sequence: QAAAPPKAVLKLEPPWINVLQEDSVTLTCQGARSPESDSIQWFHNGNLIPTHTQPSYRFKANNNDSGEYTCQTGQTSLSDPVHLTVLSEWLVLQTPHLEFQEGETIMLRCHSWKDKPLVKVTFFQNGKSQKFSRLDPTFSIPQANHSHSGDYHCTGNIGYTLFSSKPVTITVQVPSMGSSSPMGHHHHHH

T3: FcγRIIa(H) extracellular domain, C-terminal His tag (human, UniProt P12318 34-217)
T3 construct: extracellular domain; also called 2aH
T3 sequence: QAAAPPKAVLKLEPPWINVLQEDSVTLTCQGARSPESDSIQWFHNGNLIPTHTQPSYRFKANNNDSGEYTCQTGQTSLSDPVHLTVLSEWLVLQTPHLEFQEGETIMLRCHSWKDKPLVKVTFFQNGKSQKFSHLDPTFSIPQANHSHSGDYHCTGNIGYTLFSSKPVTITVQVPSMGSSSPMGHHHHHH


Assays:
Assay in all cases: SPR; He Ab vs HeCon Ab (GpH7-A5/GpH7-B3/GpL16-k0)=100;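 note: surface plasmon resonance at 25 °C with the test antibody captured on a sensor chip via antigenic peptide, protein L or protein A/G and FcγR flowed over as analyte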
[1] = molecular target: T4, FcγRIIIa extracellular domain, C-terminal His tag (human, UniProt P08637 17-208)
T4 construct: extracellular domain; also called 3a
Method: (§1) The antibody of interest was analyzed for its interaction with FcγR using a BiaCore™ T100, BiaCore™ A100, or BiaCore™ 4000 surface plasmon resonance system (GE Healthcare Japan Corp.). The running buffer used was HBS-EP+ (GE Healthcare Japan Corp.). The assay temperature was set to 25° C. The sensor chips used were: a chip prepared by immobilizing antigenic peptides onto Series S Sensor Chip CM5 (GE Healthcare Japan Corp.) by the amine coupling method; a chip prepared by immobilizing antigenic peptides biotinylated in advance onto Series S Sensor Chip SA (certified) (GE Healthcare Japan Corp.) through their interaction; a chip prepared by immobilizing protein L (ACTIGEN, BioVision, Inc.) onto Series S Sensor Chip CM5 (GE Healthcare Japan Corp.); and a chip prepared by immobilizing protein A/G (Thermo Fisher Scientific K.K.) onto Series S Sensor Chip CM5 (GE Healthcare Japan Corp.). The antibody of interest was captured onto any of these chips and allowed to interact with FcγR diluted with a running buffer. The antibody captured on the chip was washed off through the reaction of 10 mM glycine-HCl (pH 1.5) to regenerate the chip, which was repetitively used.

[2] = molecular target: T1, FcγRIIb extracellular domain, …
Method: as §1

[3] = molecular target: T5, FcγRIa extracellular domain, C-terminal His tag (human, UniProt P12314 16-292)
T5 construct: extracellular domain; also called 1a
Method: as §1

[4] = molecular target: T2, FcγRIIa(R) extracellular domain, …
Method: as §1

[5] = molecular target: T3, FcγRIIa(H) extracellular domain, …
Method: as §1

T4 sequence (P08637 other isoform, or with tags, fused parts or gaps): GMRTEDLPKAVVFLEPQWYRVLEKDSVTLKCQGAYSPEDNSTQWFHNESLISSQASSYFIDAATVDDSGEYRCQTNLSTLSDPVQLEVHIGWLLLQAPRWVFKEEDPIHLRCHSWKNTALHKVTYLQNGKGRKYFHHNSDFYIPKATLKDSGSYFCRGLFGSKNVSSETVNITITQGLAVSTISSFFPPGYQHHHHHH
T5 sequence (P12314 other isoform, or with tags, fused parts or gaps): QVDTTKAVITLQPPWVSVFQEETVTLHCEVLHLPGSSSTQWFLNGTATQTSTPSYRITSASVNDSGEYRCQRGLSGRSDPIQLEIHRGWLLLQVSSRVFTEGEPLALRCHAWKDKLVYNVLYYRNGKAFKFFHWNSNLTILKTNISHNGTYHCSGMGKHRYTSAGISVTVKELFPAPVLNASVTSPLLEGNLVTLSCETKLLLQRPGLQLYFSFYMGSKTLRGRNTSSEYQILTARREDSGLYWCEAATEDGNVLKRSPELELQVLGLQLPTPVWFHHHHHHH

| Binder | He/Con 3a [1] [%] | He/Con 2b [2] [%] | He/Con 1a [3] [%] | He/Con 2aR [4] [%] | He/Con 2aH [5] [%] |
| --- | --- | --- | --- | --- | --- |
| GpH7-A5/GpH7-B3 variant Y296_18N/GpL16-k0 (antibody, human IgG1, kappa, heterodimerized IgG1, one H chain mutated; also called He Ab; copies: 1 + 1 + 2) heavy 1: not shown heavy 2: not shown light: DIVMTQSPLSLPVTPGEPASISCQASESLVHSNRNTYLHWYLQKPGQSPQLLIYKVSNRFSGVPDRFSGSGSGTDFTLKISRVEAEDVGVYYCSQNTHVPPTFGQGTKVEIERTVAAPSVFIFPPSDEQLKSGTASVVCLLNNFYPREAKVQWKVDNALQSGNSQESVTEQDSKDSTYSLSSTLTLSKADYEKHKVYACEVTHQGLSSPVTKSFNRGEC | 67.9 | 92.8 | 102 | 99.6 | 101 |
| GpH7-A5/GpH7-B3 variant Y296_14T/GpL16-k0 (antibody, human IgG1, kappa, heterodimerized IgG1, one H chain mutated; also called He Ab; copies: 1 + 1 + 2) heavy 1: not shown heavy 2: not shown light: DIVMTQSPLSLPVTPGEPASISCQASESLVHSNRNTYLHWYLQKPGQSPQLLIYKVSNRFSGVPDRFSGSGSGTDFTLKISRVEAEDVGVYYCSQNTHVPPTFGQGTKVEIERTVAAPSVFIFPPSDEQLKSGTASVVCLLNNFYPREAKVQWKVDNALQSGNSQESVTEQDSKDSTYSLSSTLTLSKADYEKHKVYACEVTHQGLSSPVTKSFNRGEC | 60.7 | 89.4 | 102 | 98.6 | 97.2 |
| GpH7-A5/GpH7-B3 variant Y296_13S/GpL16-k0 (antibody, human IgG1, kappa, heterodimerized IgG1, one H chain mutated; also called He Ab; copies: 1 + 1 + 2) heavy 1: not shown heavy 2: not shown light: DIVMTQSPLSLPVTPGEPASISCQASESLVHSNRNTYLHWYLQKPGQSPQLLIYKVSNRFSGVPDRFSGSGSGTDFTLKISRVEAEDVGVYYCSQNTHVPPTFGQGTKVEIERTVAAPSVFIFPPSDEQLKSGTASVVCLLNNFYPREAKVQWKVDNALQSGNSQESVTEQDSKDSTYSLSSTLTLSKADYEKHKVYACEVTHQGLSSPVTKSFNRGEC | 58.1 | 87.5 | 102 | 97.5 | 96.1 |

Now from value to binder:

| He/Con 3a [1] [%] | He/Con 2b [2] [%] | He/Con 1a [3] [%] | He/Con 2aR [4] [%] | He/Con 2aH [5] [%] | Binder |
| --- | --- | --- | --- | --- | --- |
| 66.5 | 80.5 | 103 | 95.3 | 89.1 | GpH7-A5/GpH7-B3 variant Y296_12R/GpL16-k0 (antibody, human IgG1, kappa, heterodimerized IgG1, one H chain mutated; also called He Ab; copies: 1 + 1 + 2) heavy 1: not shown heavy 2: not shown light: DIVMTQSPLSLPVTPGEPASISCQASESLVHSNRNTYLHWYLQKPGQSPQLLIYKVSNRFSGVPDRFSGSGSGTDFTLKISRVEAEDVGVYYCSQNTHVPPTFGQGTKVEIERTVAAPSVFIFPPSDEQLKSGTASVVCLLNNFYPREAKVQWKVDNALQSGNSQESVTEQDSKDSTYSLSSTLTLSKADYEKHKVYACEVTHQGLSSPVTKSFNRGEC |
| 127 | 105 | 107 | 105 | 95.4 | GpH7-A5/GpH7-B3 variant Y296_20W/GpL16-k0 (antibody, human IgG1, kappa, heterodimerized IgG1, one H chain mutated; also called He Ab; copies: 1 + 1 + 2) heavy 1: not shown heavy 2: not shown light: DIVMTQSPLSLPVTPGEPASISCQASESLVHSNRNTYLHWYLQKPGQSPQLLIYKVSNRFSGVPDRFSGSGSGTDFTLKISRVEAEDVGVYYCSQNTHVPPTFGQGTKVEIERTVAAPSVFIFPPSDEQLKSGTASVVCLLNNFYPREAKVQWKVDNALQSGNSQESVTEQDSKDSTYSLSSTLTLSKADYEKHKVYACEVTHQGLSSPVTKSFNRGEC |
| 71.4 | 90.5 | 108 | 97.9 | 94.3 | GpH7-A5/GpH7-B3 variant Y296_19Q/GpL16-k0 (antibody, human IgG1, kappa, heterodimerized IgG1, one H chain mutated; also called He Ab; copies: 1 + 1 + 2) heavy 1: not shown heavy 2: not shown light: DIVMTQSPLSLPVTPGEPASISCQASESLVHSNRNTYLHWYLQKPGQSPQLLIYKVSNRFSGVPDRFSGSGSGTDFTLKISRVEAEDVGVYYCSQNTHVPPTFGQGTKVEIERTVAAPSVFIFPPSDEQLKSGTASVVCLLNNFYPREAKVQWKVDNALQSGNSQESVTEQDSKDSTYSLSSTLTLSKADYEKHKVYACEVTHQGLSSPVTKSFNRGEC |
| 69.1 | 93.5 | 103 | 100 | 101 | GpH7-A5/GpH7-B3 variant Y296_16H/GpL16-k0 (antibody, human IgG1, kappa, heterodimerized IgG1, one H chain mutated; also called He Ab; copies: 1 + 1 + 2) heavy 1: not shown heavy 2: not shown light: DIVMTQSPLSLPVTPGEPASISCQASESLVHSNRNTYLHWYLQKPGQSPQLLIYKVSNRFSGVPDRFSGSGSGTDFTLKISRVEAEDVGVYYCSQNTHVPPTFGQGTKVEIERTVAAPSVFIFPPSDEQLKSGTASVVCLLNNFYPREAKVQWKVDNALQSGNSQESVTEQDSKDSTYSLSSTLTLSKADYEKHKVYACEVTHQGLSSPVTKSFNRGEC |
